Results as given in paper PMC11908248 (bioRxiv, 2025).

B1: UNC-116-sfGFP-StrepII (natural protein, C. elegans, UniProt P34540 1-815, looked up)
chain: MEPRTDGAECGVQVFCRIRPLNKTEEKNADRFLPKFPSEDSISLGGKVYVFDKVFKPNTTQEQVYKGAAYHIVQDVLSGYNGTVFAYGQTSSGKTHTMEGVIGDNGLSGIIPRIVADIFNHIYSMDENLQFHIKVSYYEIYNEKIRDLLDPEKVNLSIHEDKNRVPYVKGATERFVGGPDEVLQAIEDGKSNRMVAVTNMNEHSSRSHSVFLITVKQEHQTTKKQLTGKLYLVDLAGSEKVSKTGAQGTVLEEAKNINKSLTALGIVISALAEGTKSHVPYRDSKLTRILQESLGGNSRTTVIICASPSHFNEAETKSTLLFGARAKTIKNVVQINEELTAEEWKRRYEKEKEKNTRLAALLQAAALELSRWRAGESVSEVEWVNLSDSAQMAVSEVSGGSTPLMERSIAPAPPMLTSTTGPITDEEKKKYEEERVKLYQQLDEKDDEIQKVSQELEKLRQQVLLQEEALGTMRENEELIREENNRFQKEAEDKQQEGKEMMTALEEIAVNLDVRQAECEKLKRELEVVQEDNQSLEDRMNQATSLLNAHLDECGPKIRHFKEGIYNVIREFNIADIASQNDQLPDHDLLNHVRIGVSKLFSEYSAAKESSTAAEHDAEAKLAADVARVESGQDAGRMKQLLVKDQAAKEIKPLTDRVNMELTTLKNLKKEFMRVLVARCQANQDTEGEDSLSGPAQKQRIQFLENNLDKLTKVHKQLVRDNADLRVELPKMEARLRGREDRIKILETALRDSKQRSQAERKKYQQEVERIKEAVRQRNMRRMNAPQIVKPIRPGQVYTSPSAGMSQGAPNGSNA

Key:
[1] = target: GST-KLC-2 (C. elegans) (UniProt P46822); experiment: BLI
GST-KLC-2 (C. elegans), sequence (P46822 whole entry): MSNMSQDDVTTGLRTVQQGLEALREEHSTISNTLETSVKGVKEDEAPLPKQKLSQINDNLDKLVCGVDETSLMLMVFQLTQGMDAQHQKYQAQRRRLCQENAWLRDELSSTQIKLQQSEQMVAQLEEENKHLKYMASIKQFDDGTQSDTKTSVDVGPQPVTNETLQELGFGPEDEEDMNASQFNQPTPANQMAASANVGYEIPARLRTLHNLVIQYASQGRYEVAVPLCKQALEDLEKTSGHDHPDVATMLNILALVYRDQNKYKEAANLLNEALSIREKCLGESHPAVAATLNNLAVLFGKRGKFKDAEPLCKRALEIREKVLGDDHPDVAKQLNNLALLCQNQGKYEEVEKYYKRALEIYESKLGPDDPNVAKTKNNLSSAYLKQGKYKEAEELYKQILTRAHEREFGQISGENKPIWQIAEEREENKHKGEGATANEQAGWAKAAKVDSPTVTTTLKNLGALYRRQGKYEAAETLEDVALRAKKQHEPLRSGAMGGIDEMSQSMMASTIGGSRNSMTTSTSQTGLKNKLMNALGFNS

[2] = target: UNC-116-sfGFP-StrepII (C. elegans) (UniProt P34540); experiment: mass photometry
[3] = target: C. elegans kinesin-1 heterotetramer (UNC-116-sfGFP-StrepII + KLC-2-6xHis) (C. elegans) (UniProt P34540); experiment: mass photometry
[4] = target: GST-KLC-2 (C. elegans) (UniProt P46822); experiment: mass photometry
[5] = target: the molecule itself; experiment: mass photometry
[6] = target: B1; experiment: mass photometry

UNC-83a-mScarlet-StrepII (from UniProt Q23064 1-1041) (domain or fragment)
Kd [1]: > 1000 nM
percent of particles in the peak of the complex [2]: 99 % peak
stoichiometry N (UNC-83a monomer per UNC-116 dimer) [2]: 1
percent of particles in the peak of the complex [3]: 97 % peak
stoichiometry N (UNC-83a monomer per kinesin-1 tetramer) [3]: 1

UNC-83c-mScarlet-StrepII (domain or fragment)
percent of particles in the peak of the complex [4]: 97 % peak
stoichiometry N (UNC-83c monomer per KLC-2 monomer) [4]: 1

B1
stoichiometry N [5]: 2

B2: UNC-83a^N-term-mScarlet-StrepII (domain or fragment, C. elegans, UniProt Q23064 1-305, looked up)
chain: MDVMDSFSEVEMPNDISSEDHLLKVIESSAEEVDIFLENCSSLYNLILDSLHNLTSKTISCECLDEMTSTLEKSAKKILAERPEAENSVLLRLNTICCAMDQLRVQHNSRMMSGADSDTASSARSSTSSSTGEMRLWLHEVERRLEINEKRIRVEPNLQLLLSDQQALQLEIQHEGQLLVNRLNKQIKDDHDSDSSEEEKRKTCVDAIRKRWHTIYLNSLSLVCRIEELINHQQASEDSESDPDLVGPPIKRARIRTVGHLTASDTEESEADEEDRHSQTETVVTEDDNVLPFAENEYESIMDGR
stoichiometry N [6]: 1 UNC-83a^N-term monomer per UNC-116 dimer
stoichiometry N [5]: 2
